Measurements published in publication PMC5451165, “Cellular levels of Grb2 and cytoskeleton stability are correlated in a neurodegenerative scenario” (Disease Models & Mechanisms, 2017).

B1: NOX4, endogenous in mouse brain (natural protein, mouse (endogenous in mouse brain), UniProt Q9JHI8 1-578, looked up)
chain: MAVSWRSWLANEGVKHLCLLIWLSLNVLLFWKTFLLYNQGPEYYYIHQMLGLGLCLSRASASVLNLNCSLILLPMCRTVLAYLRGSQKVPSRRTRRLLDKSKTLHITCGVTICIFSGVHVAAHLVNALNFSVNYSEDFLELNAARYQNEDPRKLLFTTIPGLTGVCMVVVLFLMVTASTYAIRVSNYDIFWYTHNLFFVFYMLLLLHVSGGLLKYQTNVDTHPPGCISLNQTSSQNMSIPDYVSEHFHGSLPRGFSKLEDRYQKTLVKICLEEPKFQAHFPQTWIWISGPLCLYCAERLYRCIRSNKPVTIISVINHPSDVMELRMIKENFKARPGQYIILHCPSVSALENHPFTLTMCPTETKATFGVHFKVVGDWTERFRDLLLPPSSQDSEILPFIHSRNYPKLYIDGPFGSPFEESLNYEVSLCVAGGIGVTPFASILNTLLDDWKPYKLRRLYFIWVCRDIQSFQWFADLLCVLHNKFWQENRPDFVNIQLYLSQTDGIQKIIGEKYHTLNSRLFIGRPRWKLLFDEIAKCNRGKTVGVFCCGPSSISKTLHSLSNRNNSYGTKFEYNKESFS
notes: NOX4, endogenous in mouse brain (APP/PS1 and WT mice), detected with an anti-NOX4 antibody; source: endogenous, protein extracted from paraffin-embedded brain sections of APP/PS1 (AD) and WT mice
B2: NOX4, endogenous in SHSY-5Y cells (natural protein, human (endogenous in SHSY-5Y), UniProt Q9NPH5 1-578, looked up)
chain: MAVSWRSWLANEGVKHLCLFIWLSMNVLLFWKTFLLYNQGPEYHYLHQMLGLGLCLSRASASVLNLNCSLILLPMCRTLLAYLRGSQKVPSRRTRRLLDKSRTFHITCGVTICIFSGVHVAAHLVNALNFSVNYSEDFVELNAARYRDEDPRKLLFTTVPGLTGVCMVVVLFLMITASTYAIRVSNYDIFWYTHNLFFVFYMLLTLHVSGGLLKYQTNLDTHPPGCISLNRTSSQNISLPEYFSEHFHEPFPEGFSKPAEFTQHKFVKICMEEPRFQANFPQTWLWISGPLCLYCAERLYRYIRSNKPVTIISVMSHPSDVMEIRMVKENFKARPGQYITLHCPSVSALENHPFTLTMCPTETKATFGVHLKIVGDWTERFRDLLLPPSSQDSEILPFIQSRNYPKLYIDGPFGSPFEESLNYEVSLCVAGGIGVTPFASILNTLLDDWKPYKLRRLYFIWVCRDIQSFRWFADLLCMLHNKFWQENRPDYVNIQLYLSQTDGIQKIIGEKYHALNSRLFIGRPRWKLLFDEIAKYNRGKTVGVFCCGPNSLSKTLHKLSNQNNSYGTRFEYNKESFS
notes: NOX4, endogenous in human neuroblastoma SHSY-5Y cells, detected with an anti-NOX4 antibody; source: endogenous, SHSY-5Y cell lysate

Columns and labels:
Settings in all cases: partners not purified
[1] = target: T1, Grb2, endogenous in mouse brain (mouse (endogenous in mouse brain), UniProt Q60631 1-217); test: co-IP; Grb2 pull down from protein extracted from paraffinized brain sections of AD (APP/PS1) and WT mice, probed with anti-NOX4 antibody
T1 construct: Grb2, endogenous in mouse brain (APP/PS1 and WT mice), precipitated with an anti-Grb2 antibody; source: endogenous, protein extracted from paraffin-embedded brain sections of APP/PS1 (AD) and WT mice

[2] = target: T2, Grb2-DsRed construct (UniProt P62993 1-217); test: co-IP; IP for Grb2 from cell lysate, blot with anti-NOX4 (reverse: IP for NOX4, blot with anti-Grb2); cells under control (GFP, DMSO, DsRed), AD-inducing (AICD, Aβ, DsRed), reversal (AICD, Aβ, Grb2-DsRed) and Grb2 knock-down (U6-Grb2) conditions
T2 construct: Grb2 cloned into a DsRed-C1 vector; In the transfected cells endogenous Grb2 is present too, and the anti-Grb2 antibody would precipitate both; A C1 vector usually places the fluorescent protein at the N-terminus; source: SHSY-5Y, transiently transfected, in lysate

[3] = target: T3, Growth factor receptor bound protein 2 (Grb2), endogenous in SHSY-5Y cells (human (endogenous in SHSY-5Y), UniProt P62993 1-217); test: as above
T3 construct: Grb2, endogenous in human neuroblastoma SHSY-5Y cells, precipitated with an anti-Grb2 antibody; source: endogenous, SHSY-5Y cell lysate
T3 sequence (P62993 whole entry): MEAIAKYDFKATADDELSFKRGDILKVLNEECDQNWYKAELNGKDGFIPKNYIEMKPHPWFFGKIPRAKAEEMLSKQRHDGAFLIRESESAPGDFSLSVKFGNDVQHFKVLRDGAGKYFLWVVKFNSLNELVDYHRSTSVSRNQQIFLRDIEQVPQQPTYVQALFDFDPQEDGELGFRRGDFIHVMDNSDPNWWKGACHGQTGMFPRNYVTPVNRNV

T1 sequence (Q60631 whole entry): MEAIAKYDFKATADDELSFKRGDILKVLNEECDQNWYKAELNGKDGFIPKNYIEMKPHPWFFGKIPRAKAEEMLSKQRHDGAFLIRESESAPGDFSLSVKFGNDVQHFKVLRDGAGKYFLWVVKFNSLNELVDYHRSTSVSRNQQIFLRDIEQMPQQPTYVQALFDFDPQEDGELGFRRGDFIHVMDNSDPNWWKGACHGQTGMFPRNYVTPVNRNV
T2 sequence (P62993 whole entry): as the sequence (P62993 whole entry) above

Row | Binder | fold change of the co-precipitated interaction, AD mouse brain relative to wild type [1] [fold] | fold change of the co-precipitated interaction, reversal condition (AICD + Aβ + Grb2-DsRed) relative to control [2] [fold] | fold change of the co-precipitated interaction, AD conditions (AICD + Aβ) relative to control [3] [fold]
1 | B1 | 1.49 |  | 
2 | B2 |  | 2.18 | 1.42
